Data reported in patent US20030103973A1 (published 2003).
Where two headings read alike, the source gives them in different places.

Columns and labels:
[1] = biological target: chimeric receptor mouse FLK-1/human fms expressed on transfected 3T3 cells (C441) (mouse; human) (UniProt P35918); assay: cell-based or functional assay
[2] = biological target: chimeric receptor mouse FLK-1/human fms expressed on transfected 3T3 cells (C441) (mouse; human) (UniProt P35918); assay: saturation binding to intact C441 cells, colorimetric detection
[3] = biological target: KDR expressed on HUVEC (human, UniProt P35968 20-1356); assay: cell-based or functional assay
Chain of KDR expressed on HUVEC (P35968 20-1356): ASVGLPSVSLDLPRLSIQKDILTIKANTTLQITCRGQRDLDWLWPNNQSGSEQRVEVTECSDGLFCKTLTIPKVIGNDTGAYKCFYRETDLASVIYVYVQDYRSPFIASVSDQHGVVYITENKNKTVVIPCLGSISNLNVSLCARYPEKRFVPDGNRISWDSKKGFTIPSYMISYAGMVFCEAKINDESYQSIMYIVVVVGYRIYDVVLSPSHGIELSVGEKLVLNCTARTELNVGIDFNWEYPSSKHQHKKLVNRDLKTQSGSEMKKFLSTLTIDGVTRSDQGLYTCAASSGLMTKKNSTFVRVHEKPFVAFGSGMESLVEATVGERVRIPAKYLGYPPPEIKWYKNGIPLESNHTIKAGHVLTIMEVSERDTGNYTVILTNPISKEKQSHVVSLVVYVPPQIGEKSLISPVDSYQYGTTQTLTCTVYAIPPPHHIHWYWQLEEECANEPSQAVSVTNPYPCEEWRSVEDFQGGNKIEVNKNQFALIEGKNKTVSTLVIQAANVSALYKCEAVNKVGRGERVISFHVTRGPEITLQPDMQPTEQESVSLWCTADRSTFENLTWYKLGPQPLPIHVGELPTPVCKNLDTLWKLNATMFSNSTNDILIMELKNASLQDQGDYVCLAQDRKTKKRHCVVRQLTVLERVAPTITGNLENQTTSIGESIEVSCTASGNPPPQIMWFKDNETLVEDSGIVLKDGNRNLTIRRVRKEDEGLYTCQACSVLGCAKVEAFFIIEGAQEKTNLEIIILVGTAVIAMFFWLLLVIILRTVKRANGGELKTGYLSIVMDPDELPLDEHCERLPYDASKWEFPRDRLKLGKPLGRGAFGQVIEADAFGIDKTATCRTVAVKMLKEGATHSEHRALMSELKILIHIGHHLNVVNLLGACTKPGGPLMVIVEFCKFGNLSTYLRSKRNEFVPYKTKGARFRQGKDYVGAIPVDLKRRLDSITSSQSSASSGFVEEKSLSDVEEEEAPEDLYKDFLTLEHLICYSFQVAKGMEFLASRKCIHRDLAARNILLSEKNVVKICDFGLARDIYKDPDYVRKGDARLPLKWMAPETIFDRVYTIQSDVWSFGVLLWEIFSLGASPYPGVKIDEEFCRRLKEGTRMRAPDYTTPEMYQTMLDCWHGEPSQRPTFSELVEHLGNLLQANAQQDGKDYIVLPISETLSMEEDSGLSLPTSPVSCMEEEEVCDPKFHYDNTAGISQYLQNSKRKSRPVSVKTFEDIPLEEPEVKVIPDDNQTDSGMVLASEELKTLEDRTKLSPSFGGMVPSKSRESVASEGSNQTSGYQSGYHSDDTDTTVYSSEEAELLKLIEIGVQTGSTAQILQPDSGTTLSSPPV

[4] = biological target: T1, soluble fusion protein KDR-AP (KDR extracellular domain fused to human placental alkaline phosphatase) (human, UniProt P35968 20-764); assay: BIAcore, KDR-AP immobilized
T1 construct: extracellular domain; also called immobilized KDR; KDR receptor; not shown: human placental alkaline phosphatase (vector AP-Tag)
T1 sequence (P35968 20-764): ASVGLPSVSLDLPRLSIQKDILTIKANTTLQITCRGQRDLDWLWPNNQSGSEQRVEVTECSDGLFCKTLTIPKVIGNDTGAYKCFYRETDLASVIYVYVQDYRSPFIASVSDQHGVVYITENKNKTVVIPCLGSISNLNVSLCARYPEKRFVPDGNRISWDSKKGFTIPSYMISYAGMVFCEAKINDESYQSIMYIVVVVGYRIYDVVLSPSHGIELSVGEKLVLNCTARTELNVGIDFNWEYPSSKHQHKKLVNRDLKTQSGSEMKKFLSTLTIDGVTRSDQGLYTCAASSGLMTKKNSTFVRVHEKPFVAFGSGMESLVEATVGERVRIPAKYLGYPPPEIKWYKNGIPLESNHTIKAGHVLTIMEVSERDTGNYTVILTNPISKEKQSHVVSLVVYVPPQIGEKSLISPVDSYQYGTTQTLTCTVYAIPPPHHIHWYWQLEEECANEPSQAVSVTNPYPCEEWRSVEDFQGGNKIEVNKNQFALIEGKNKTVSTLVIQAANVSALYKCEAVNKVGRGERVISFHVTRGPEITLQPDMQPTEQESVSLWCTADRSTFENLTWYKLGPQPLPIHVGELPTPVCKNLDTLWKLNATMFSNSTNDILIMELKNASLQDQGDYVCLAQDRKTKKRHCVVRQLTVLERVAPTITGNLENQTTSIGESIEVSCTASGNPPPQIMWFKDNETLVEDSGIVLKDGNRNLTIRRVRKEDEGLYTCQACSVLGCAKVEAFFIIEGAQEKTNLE
Method: The binding kinetics of soluble scFv to KDR were measured using BIAcore biosensor (Pharmacia Biosensor). KDR-AP fusion protein was immobilized onto a sensor chip and soluble scFv were injected at concentrations ranging from 62.5 nM to 1000 nM. Sensorgrams were obtained at each concentration and were evaluated using a program, BIA Evaluation 2.0, to determine the rate constant kon and koff. Kd was calculated from the ratio of rate constants koff/kon.

[5] = biological target: T1, soluble fusion protein KDR-AP (KDR …); assay: BIAcore, KDR-AP immobilized; remark: listed apart in the source
Method: The binding kinetics of antibodies to KDR were measured using BIAcore biosensor (Pharmacia Biosensor). […] Sensorgrams were obtained at each concentration and were evaluated using a program, BIA Evaluation 2.0, to determine the rate constants kon and koff. Kd was calculated as the ratio of rate constants koff/kon.
*All rates are determined by surface plasmon resonance using BIAcore system, and are mean of at least three separate determinations.

[6] = biological target: T1, soluble fusion protein KDR-AP (KDR …); assay: competitive ELISA: KDR-AP binding to immobilized VEGF165
[7] = biological target: T1, soluble fusion protein KDR-AP (KDR …); assay: competitive VEGF blocking ELISA: KDR-AP binding to immobilized VEGF165
[8] = biological target: T1, soluble fusion protein KDR-AP (KDR …); assay: direct binding ELISA on KDR-coated plates (printed ED50, 50% of maximum binding)
Method: In the direct binding assay, various amounts of soluble scFv were added to KDR-coated 96-well Maxi-sorp microtiter plates and incubated at room temerature for 1 h, after which the plates were washed 3 times with PBST. The plates were then incubated at room temerature for 1 h with 100 μl of mouse anti-E tag antibody followed by incubation with 100 µl of rabbit anti-mouse antibody-HRP conjugate. The plates were washed and developed following the procedure described above for the phage ELISA.

Chain of chimeric receptor mouse FLK-1/human fms expressed on transfected 3T3 cells (C441) (mouse; human) (P35918 other isoform, or with tags, fused parts or gaps mutant limits assumed): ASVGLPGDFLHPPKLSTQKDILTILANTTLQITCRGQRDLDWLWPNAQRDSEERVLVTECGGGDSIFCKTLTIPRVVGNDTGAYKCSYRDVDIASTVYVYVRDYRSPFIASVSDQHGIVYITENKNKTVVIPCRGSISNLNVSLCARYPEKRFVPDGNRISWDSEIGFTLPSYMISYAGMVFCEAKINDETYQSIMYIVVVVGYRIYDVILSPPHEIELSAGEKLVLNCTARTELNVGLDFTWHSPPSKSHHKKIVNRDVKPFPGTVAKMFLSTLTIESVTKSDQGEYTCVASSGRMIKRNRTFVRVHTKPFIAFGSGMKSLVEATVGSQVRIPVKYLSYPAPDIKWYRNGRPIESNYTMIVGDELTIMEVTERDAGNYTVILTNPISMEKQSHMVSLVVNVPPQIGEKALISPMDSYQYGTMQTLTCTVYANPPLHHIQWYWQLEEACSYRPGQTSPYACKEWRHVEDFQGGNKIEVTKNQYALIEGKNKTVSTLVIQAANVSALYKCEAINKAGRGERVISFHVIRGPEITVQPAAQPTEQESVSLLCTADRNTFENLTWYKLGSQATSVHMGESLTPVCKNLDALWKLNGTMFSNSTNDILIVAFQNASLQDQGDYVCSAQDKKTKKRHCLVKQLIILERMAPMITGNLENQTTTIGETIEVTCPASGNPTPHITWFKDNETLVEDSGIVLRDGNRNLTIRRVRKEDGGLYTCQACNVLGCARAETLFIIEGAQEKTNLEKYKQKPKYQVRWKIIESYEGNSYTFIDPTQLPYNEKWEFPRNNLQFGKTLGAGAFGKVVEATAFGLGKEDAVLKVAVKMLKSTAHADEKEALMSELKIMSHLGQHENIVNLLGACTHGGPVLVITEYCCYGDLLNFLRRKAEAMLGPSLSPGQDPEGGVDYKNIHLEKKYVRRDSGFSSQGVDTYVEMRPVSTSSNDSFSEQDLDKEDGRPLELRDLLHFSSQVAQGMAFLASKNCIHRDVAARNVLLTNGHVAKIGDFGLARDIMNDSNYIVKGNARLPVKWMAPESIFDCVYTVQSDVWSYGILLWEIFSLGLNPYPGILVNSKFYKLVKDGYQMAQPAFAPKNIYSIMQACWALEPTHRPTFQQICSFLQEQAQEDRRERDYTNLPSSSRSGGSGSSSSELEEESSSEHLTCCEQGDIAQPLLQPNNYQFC

Binder | antibody concentration giving a marked decrease in the phosphorylation of FLK-1, competitive conditions [1] [µg/mL] | antibody concentration giving a marked decrease in the phosphorylation of FLK-1 by VEGF165 (40 ng/ml) [1] [µg/mL] | antibody concentration sufficient to inhibit receptor activation by ligand [1] [µg/mL] | level of FLK-1/fms phosphorylation relative to the fully stimulated receptor control, antibody added with VEGF (densitometry) [1] [%] | level of FLK-1/fms phosphorylation relative to the fully stimulated receptor control, antibody prebound (densitometry) [1] [%] | prebound antibody concentration sufficient to completely inhibit receptor activation by ligand [1] [µg/mL] | relative apparent affinity [2] [ng/mL] | EC50, the antibody concentration that inhibited 50% of VEGF-stimulated mitogenesis of HUVEC [3] [nM] | Kd [4] [nM] | koff [4] [s⁻¹] | kon [4] [M⁻¹ s⁻¹] | Kd [5] [nM] | koff [5] [s⁻¹] | kon [5] [M⁻¹ s⁻¹] | IC50 [6] [nM] | IC50 [7] [nM] | EC50 [8] [nM]
rat anti-mouse FLK-1 monoclonal antibody DC-101 (antibody, from another filing, rat IgG1, V domains shown) VH: EVQLVETGGGLVQPGNSLKLSCATSGFIFSTTWMNWIRQTPGKRLEWLAQIEDKSNNYFISYSESVKGRFTISRDDSKSSVYLQMNNLKEEDTAIYYCSWKYRSNYYFDYWGQGVMVTVSS VL: DIVLTQSPALAVSLEQRATISCKTSQNVDYYGISYLHWYQQKPGQQPKLLIYEGSNLASGIPARFSGSGSGTDFTLTIDPVEADDIVTYYCQQSKDYPYTFGAGTKLELKR | > 0.5 | > 0.5 | < 1 | 40 | 6 | < 1 | 500 | – | – | – | – | – | – | – | – | – | –
anti-KDR single chain antibody p1C11 (scFv, also called scFv p1C11; p1C11 scFv) scFv: QVKLQQSGAELVGSGASVKLSCTTSGFNIKDFYMHWVKQRPEQGLEWIGWIDPENGDSDYAPKFQGKATMTADSSSNTAYLQLSSLTSEDTAVYYCNAYYGDYEGYWGQGTTVTVSSGGGGSGGGGSGGGGSDIELTQSPAIMSASPGEKVTITCSASSSVSYMHWFQQKPGTSPKLWIYSTSNLASGVPARFSGSGSGTSYSLTISRMEAEDAATYYCQQRSSYPFTFGSGTKLEIK | – | – | – | – | – | – | – | ~5 | 2.1 | 0.00023 | 110000 | 2.1 | 0.000227 | 111000 | 2 | 3 | 0.3
chimeric p1C11 IgG (c-p1C11) (antibody, V domains shown, bivalent IgG made in COS cells; also called chimeric IgG) VH: QVKLQQSGAELVGSGASVKLSCTTSGFNIKDFYMHWVKQRPEQGLEWIGWIDPENGDSDYAPKFQGKATMTADSSSNTAYLQLSSLTSEDTAVYYCNAYYGDYEGYWGQGTTVTVSS VL: DIELTQSPAIMSASPGEKVTITCSASSSVSYMHWFQQKPGTSPKLWIYSTSNLASGVPARFSGSGSGTSYSLTISRMEAEDAATYYCQQRSSYPFTFGSGTKLEIK | – | – | – | – | – | – | – | – | – | – | – | 0.82 | 5.2e-05 | 63000 | 0.8 | – | –
